Reference: patent publication US11945881B2, “Neoantigens expressed in ovarian cancer and their uses” (Janssen Biotech, Inc., priority 2020, dated 2024)

B1: HQYIVVQDIHTETQHSALGAQPADSIPPFLQHTLQHLACPSLELPGNEQARREKRRRDDAFSDSL (peptide)
chain: HQYIVVQDIHTETQHSALGAQPADSIPPFLQHTLQHLACPSLELPGNEQARREKRRRDDAFSDSL
notes: neoantigen, alternative splicing of SRGAP3
B2: HFVRSQDKGMVWTPEPSALPRTPRRHPGLSLCSQWGGLRVGPPAARPGWSLAHVLRVTLLQFHPNPGKETQKKQRCPKEDPSRIWRA (peptide)
chain: HFVRSQDKGMVWTPEPSALPRTPRRHPGLSLCSQWGGLRVGPPAARPGWSLAHVLRVTLLQFHPNPGKETQKKQRCPKEDPSRIWRA
notes: neoantigen, alternative splicing of RUFY4
B3: RDLQCPKKTQTPQAQSRLESERKKNTLTWLVPTPWDWRQWSTAPSRGLVWPPPPVDYELWKSS (peptide)
chain: RDLQCPKKTQTPQAQSRLESERKKNTLTWLVPTPWDWRQWSTAPSRGLVWPPPPVDYELWKSS
notes: neoantigen, alternative splicing of LRRC75B
B4: LKQDVRSGGPGARQLRGGLLRQAAPPGRRTRPFPHRARLHTALPTARLPGGPAAASRPAFRAAPRESGASVPGPSASPG (peptide)
chain: LKQDVRSGGPGARQLRGGLLRQAAPPGRRTRPFPHRARLHTALPTARLPGGPAAASRPAFRAAPRESGASVPGPSASPG
notes: neoantigen, alternative splicing of IL17RC
B5: ARLRELRQCGGGRGKRGQGWGVRDETITGRPAVLGSPFLSPALAPPSRLMGDLWDGQSAGWSPGSPASPFCGGW (peptide)
chain: ARLRELRQCGGGRGKRGQGWGVRDETITGRPAVLGSPFLSPALAPPSRLMGDLWDGQSAGWSPGSPASPFCGGW
notes: neoantigen, alternative splicing of HSF4

How the values were obtained:
[1] = test system: CD8+ T cells; experiment: exogenous autologous normal donor restimulation assay, TNFα/IFNγ double positive CD8+ T cells by flow cytometry; type: cell-based, human; details: for Fold change (CD8+) vs. DMSO: maximum CD8+ T-cell response (TNFα and IFNγ); for Fold change (CD8+) vs. DMSO / Frequency (TNFα + IFNγ + CD8 T cells): donor independent, peptide pool 10 μg/mL, healthy donors; for Frequency (TNFα + IFNγ + CD8 T cells): maximum CD8+ T-cell response; for Immunogenic (yes/no): positive if CD8+ and/or CD4+ double positive TNFα/IFNγ frequency >=3-fold over DMSO and at least 0.01%
[2] = test system: CD4+ T cells; experiment: exogenous autologous normal donor restimulation assay, TNFα/IFNγ double positive CD4+ T cells by flow cytometry; type: cell-based, human; details: donor independent, peptide pool 10 μg/mL, healthy donors; for Fold change (CD4+) vs. DMSO: maximum CD4+ T-cell response (TNFα and IFNγ); for Frequency (TNFα + IFNγ + CD4 T cells): maximum CD4+ T-cell response

Molecule | Fold change (CD8+) vs. DMSO [1] [fold] | Frequency (TNFα + IFNγ + CD8 T cells) [1] [%] | Immunogenic (yes/no) [1] | Fold change (CD4+) vs. DMSO [2] [fold] | Frequency (TNFα + IFNγ + CD4 T cells) [2] [%]
WSQDLQEGFSAPSRISAWFGPP [AS17, neoantigen, alternative splicing of KRT8] | 169.53 | 0.79 | Yes | 29.97 | 0.41
YCKNDFFRSLPCHLL [AS16, neoantigen, alternative splicing of LHX1] | 2.88 | 0.062 | Yes | 5.43 | 0.011
YGNDQWLQMRKWRHRE [FUS13, neoantigen, gene fusion MFGE8->HAPLN3] | 5.12 | 0.11 | yes | 3.35 | 0.12
B1 | 14.89 | 0.16 | Yes | 12.03 | 0.078
B2 | 69.96 | 1.87 | Yes | 279.88 | 0.28
B3 | 143.98 | 1.28 | Yes | 10.84 | 0.047
B4 | 25.75 | 0.36 | Yes | 10.73 | 0.12
B5 | 66.2 | 0.62 | Yes | 6.63 | 0.043
